# Test results published in article PMC12141448.
# Experiments:
# [1] = molecular target: PelB of P. aeruginosa PAO1, C-terminal fragment (residues 762-1193) with three periplasmic TPR repeats and the transmembrane β-barrel (Pseudomonas aeruginosa PAO1) (UniProt Q9HZE5); assay: cryo-EM structure; PelBC complex in MSP1D1 nanodiscs (POPC:POPG 70:30), 50 mM HEPES pH 7.4, 150 mM NaCl; no symmetry imposed; 2.52 Å
# [2] = molecular target: PelC lipoprotein of P. aeruginosa PAO1 (Pseudomonas aeruginosa PAO1); assay: as above
substance,measurement,setting,value
PelC lipoprotein of P. aeruginosa PAO1 (natural protein),stoichiometry N (PelC per PelB),[1],12
same,stoichiometry N,[2],12 subunits
